Literature values as cited in US5397694A, “Protease inhibitor” (Merck Patent GmbH, priority 1989, dated 1995).

B1: Eglin C: Eglin variant with tyrosine where Eglin B has histidine (protein, UniProt P01051 1-70, looked up)
Eglin C: TEFGSELKSFPEVVGKTVDQAREYFTLHYPQYDVYFLPEGSPVTLDLRYNRVRVFYNPGTNVVNHVPHVG
In the case of B1, the “isoelectric point (pI), published report” value is given as 6.45.
